Paper PMC9911399, “Two distinct binding modes provide the RNA-binding protein RbFox with extraordinary sequence specificity”

Tests used:
[1] = biological target: T1, RbFoxmut (RRM with four substitutions) (UniProt Q9NWB1); assay: EMSA; conditions: EMSA: 10 mM Tris pH 7.5, 150 mM NaCl, 3.4 mM EDTA, 0.001% NP-40, 30 C, 10 min, 1 nM RNA, 8% native PAGE; NMR: 10 mM sodium phosphate pH 6.0, 30 mM NaCl, 298 K …
T1 sequence: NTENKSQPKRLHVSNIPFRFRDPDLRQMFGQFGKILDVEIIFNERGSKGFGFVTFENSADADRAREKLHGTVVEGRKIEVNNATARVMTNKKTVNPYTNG

[2] = biological target: T2, RbFox RRM (wt) (UniProt Q9NWB1 109-208); assay: EMSA; EMSA: 10 mM Tris pH 7.5, 150 mM NaCl, 3.4 mM EDTA, 0.001% NP-40, 30 C, 10 min, 1 nM RNA, 8% native PAGE; NMR: 10 mM sodium phosphate pH 6.0, 30 mM NaCl, 298 K; conditions: protein: recombinant; tags: His6 (HisTrap) for EMSA; His6-GST removed by TEV for NMR; label: 5' 32P (EMSA); unlabeled (NMR)
T2 sequence: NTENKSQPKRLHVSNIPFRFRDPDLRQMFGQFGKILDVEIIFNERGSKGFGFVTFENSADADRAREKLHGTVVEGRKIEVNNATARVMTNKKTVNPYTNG

[3] = biological target: T3, RBFOX1 RRM RbFoxmut (Fox-RRM*) (Homo sapiens, UniProt Q9NWB1 109-208, R118D;E147R;N151S;E152T); assay: EMSA; 10 mM Tris pH 7.5, 150 mM NaCl, 3.4 mM EDTA, 0.001% NP-40, 30 C; conditions: tags: His6 N-terminal (pET28a); label: 5' 32P
T3 sequence: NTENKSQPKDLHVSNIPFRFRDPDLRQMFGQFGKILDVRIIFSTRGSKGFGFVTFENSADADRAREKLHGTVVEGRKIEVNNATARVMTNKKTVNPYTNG

[4] = biological target: T4, RBFOX1 RRM (Homo sapiens, UniProt Q9NWB1 109-208); assay: as above; conditions: tags: His6 N-terminal (pET28a); label: 5' 32P
T4 sequence: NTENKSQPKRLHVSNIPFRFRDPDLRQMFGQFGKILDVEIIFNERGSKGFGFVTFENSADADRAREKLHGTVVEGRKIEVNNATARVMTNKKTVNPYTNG

| Molecule | K half [1] | apparent K (half saturation) [3] | also measured |
| --- | --- | --- | --- |
| UGCAUGU [UGCAUGU (cognate)] | 14.3 nM | – | – |
| UACAUGU | – | – | binding signal [1]: -5.01 ln(KA,rel) |
| UGAAUGU | 35.3 nM | – | – |
| UGCAUGU (ssRNA) [UGCAUGU (cognate)] | – | – | apparent K (half saturation) [2]: 1.6 ± 0.3 nM |
| UGAAUGU (ssRNA) | – | 35.3 ± 11.8 nM | apparent K (half saturation) [4]: > 17 µM |
| UGCAUGU (ssRNA) | – | 14.3 ± 2.5 nM | – |
